For one test, the target named is (15)KDPGA(0). The experiment in a line: microscale thermophoresis (MST); table row (15)KDPGA(0). In general terms: In MST a laser heats a spot of the sample, and binding alters the fluorescence response.
Another test addresses (15)KDPGA(5). Nature of the test: microscale thermophoresis (MST); table row (15)KDPGA(5).

Results on 1 molecule are retold here after patent US20260275319A1, “ARCHAEAL PEPTIDE RECOMBINASE – A NOVEL PEPTIDE LIGATING ENZYME” (MAX-PLANCK-GESELLSCHAFT ZUR FÖRDERUNG DER WISSENSCHAFTEN …, priority 2019, published 2026).

B1: M. jannaschii Adriase S1A mutant with C-terminal His-tag, Q57968 3-293 (enzyme)
chain: ALIICYYGKNGAVIGGDRRQIFFRGSEENRKILEEKLYSGEIKSEEELYKLAEKLNIKIIIEDDREKVRKISDSVVCGEVRSLGIDAKRRRVYATKGKCAIVDILNDTVTNQTIKEGFGIVVLGNRFLKKKAEEELKRTAKLFPMMPIQQIEDAIKEIFEKLKWHPTVSKEYDIYSVNKYEKNFEEVIKKDIESLFKYREQLRKQLIDFGKVMSIVNKIVKNGEIGVIKDGKLHLYDDYIAIDKIDPNPKVFKVVDVEGNFKDGDIVVIENGDMKIKGTNEKVTTKYIIIHKGSHHHHHH
The term Kd denotes the concentration at which binding is half-saturated. A low value points to higher affinity. For B1, the Kd in the test with (15)KDPGA(0) and with (15)KDPGA(5) was above 20 µM in each case.
